Laboratory results reported in publication PMC8352940 (2021).

Molecular target: SARS-CoV-2 RBD without the Fc fragment (SARS-CoV-2, UniProt P0DTC2 319-541)
Assay: BLI

Binder | koff
nCoVmab2 (antibody, V domains shown) VH: EVQLVQSGGGVVQPGRSLRLSCAASGFTVSSNYMSWVRQAPGKGLEWVSVIYSGGSTYYADSVKGRFTISRDNSKNTLYLQMNSLRAEDTAVYYCARGDGSDDYYYGMDVWGQGTTVTVSS VL: QAVLTQPSSVSGAPGQRVTISCTGSSSNVGAGYDVHWYQQLPGTAPKLLIYGNSNRPSGVPDRFSGSKSGTSASLAITGLQAEDEADYYCQSYDSSLSGSVFGGGTKLTVL | 4.95e-05 s⁻¹
nCoVmab1 (antibody, V domains shown) VH: QVQLVESGGGLVQPGGSLRLSCAASGFTVSSNYMSWVRQAPGKGLEWVSVIYSGGSTYYADSVKGRFTISRDNSKNTLYLQMNSLRAEDTAVYYCARGDGSDDYYYGMDVWGQGTTVTVSS VL: QSVVTQPPSVSGAQGQRVFISCTGNGANIGMGYDVHWYQQLPGRAPKLLIFGNTNRPSGVPDRFSASRSGTSASLAITGLQTADEADYYCQSYDGNLRASVFGGGTKLTVL | 1.01e-05 s⁻¹
